Experimental data taken from paper PMC4960544, “Production of full-length soluble Plasmodium falciparum RH5 protein vaccine using a Drosophila melanogaster Schneider 2 stable cell line system” (Scientific Reports, 2016).

Assays:
basigin (Homo sapiens) = basigin (Homo sapiens) (UniProt P35613); test: SPR; conditions: cited from earlier work
[1] = single-cycle GIA with purified rabbit total IgG; conditions: glycan lost; control: v5.0 (native sequons, glycosylated)
[2] = rabbit serum anti-PfRH5 v2.0 IgG ELISA; conditions: glycan lost; control: v5.0 (native sequons, glycosylated)
[3] = GIA versus anti-PfRH5 IgG concentration, fitted curves; conditions: glycan lost; control: v5.0 (native sequons, glycosylated)

basigin (Homo sapiens), sequence (P35613 22-325): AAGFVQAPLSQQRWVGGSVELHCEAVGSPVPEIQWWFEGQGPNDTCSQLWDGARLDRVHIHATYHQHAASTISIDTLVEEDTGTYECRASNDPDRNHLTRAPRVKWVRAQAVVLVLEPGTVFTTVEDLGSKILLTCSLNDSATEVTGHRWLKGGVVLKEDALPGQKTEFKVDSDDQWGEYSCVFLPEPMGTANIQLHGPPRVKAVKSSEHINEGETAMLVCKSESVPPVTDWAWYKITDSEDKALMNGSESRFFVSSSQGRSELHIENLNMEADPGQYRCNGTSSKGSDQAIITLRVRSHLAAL

Molecule: PfRH5 (from UniProt Q8IFM5)
- Kd (basigin (Homo sapiens)): 1500 nM

B1: PfRH5 (reticulocyte-binding protein homolog 5): v3.0 (four Asn to Gln) (protein)
parent chain: MIRIKKKLILTIIYIHLFILNRLSFENAIKKTKNQENNLTLLPIKSTEEEKDDIKNGKDIKKEIDNDKENIKTNNAKDHSTYIKSYLNTNVNDGLKYLFIPSHNSFIKKYSVFNQINDGMLLNEKNDVKNNEDYKNVDYKNVNFLQYHFKELSNYNIANSIDILQEKEGHLDFVIIPHYTFLDYYKHLSYNSIYHKSSTYGKCIAVDAFIKKINETYDKVKSKCNDIKNDLIATIKKLEHPYDINNKNDDSYRYDISEEIDDKSEETDDETEEVEDSIQDTDSNHTPSNKKKNDLMNRTFKKMMDEYNTKKKKLIKCIKNHENDFNKICMDMKNYGTNLFEQLSCYNNNFCNTNGIRYHYDEYIHKLILSVKSKNLNKDLSDMTNILQQSELLLTNLNKKMGSYIYIDTIKFIHKEMKHIFNRIEYHTKIINDKTKIIQDKIKLNIWRTFQKDELLKRILDMSNEYSLFITSDHLRQMLYNTFYSKEKHLNNIFHHLIYVLQMKFNDVPIKMEYFQTYKKNKPLTQ
- other: immunogenicity (growth inhibition by induced IgG), EC50 [1]: increases, 8.4 vs >10
- other: immunogenicity, other: median PfRH5-specific IgG [2]: increases, 535 vs 40

B2: PfRH5 (reticulocyte-binding protein homolog 5): v4.0 (N38Q and N214Q) (protein)
parent chain: B1 parent chain
- other: immunogenicity (growth inhibition by induced IgG), EC50 [1]: no change, >10 vs >10
- other: immunogenicity, other: median PfRH5-specific IgG [2]: increases, 116 vs 40

B3: PfRH5 (reticulocyte-binding protein homolog 5): v2.0 (four Thr to Ala) (protein)
parent chain: B1 parent chain
- other: immunogenicity (growth inhibition by induced IgG), EC50 [1]: increases, 4 vs >10
- other: immunogenicity, other: median PfRH5-specific IgG [2]: increases, 278 vs 40
- other: immunogenicity (antibody quality, GIA per antigen-specific IgG), EC50 [3]: no change, median EC50 of 129 μg/mL (95% CI 80.7–186.7 μg/mL) anti-PfRH5 IgG
